# Positions count from the first letter of the chain named. Names and notes keep the numbering of the source.
# T1: Human T cell receptor on human primary T cells (human, UniProt P01848 1-140; P01850 1-176)
# T1 TCR alpha (looked up): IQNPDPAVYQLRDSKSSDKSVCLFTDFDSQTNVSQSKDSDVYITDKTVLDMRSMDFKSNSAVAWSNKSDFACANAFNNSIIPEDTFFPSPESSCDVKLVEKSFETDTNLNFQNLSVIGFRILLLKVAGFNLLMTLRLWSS
# T1 TCR beta (looked up): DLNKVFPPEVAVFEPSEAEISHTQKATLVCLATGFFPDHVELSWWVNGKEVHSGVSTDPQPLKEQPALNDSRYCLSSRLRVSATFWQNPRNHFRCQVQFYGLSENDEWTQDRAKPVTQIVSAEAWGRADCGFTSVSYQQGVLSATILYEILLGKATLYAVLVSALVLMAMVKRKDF
# T2: Cynomolgus TCR(AEA41865/AEA41866)-zipper protein (cynomolgus monkey)
# T2 construct: also called cyTCR-zipper protein; cynoTCR zipper
# T2 TCR alpha: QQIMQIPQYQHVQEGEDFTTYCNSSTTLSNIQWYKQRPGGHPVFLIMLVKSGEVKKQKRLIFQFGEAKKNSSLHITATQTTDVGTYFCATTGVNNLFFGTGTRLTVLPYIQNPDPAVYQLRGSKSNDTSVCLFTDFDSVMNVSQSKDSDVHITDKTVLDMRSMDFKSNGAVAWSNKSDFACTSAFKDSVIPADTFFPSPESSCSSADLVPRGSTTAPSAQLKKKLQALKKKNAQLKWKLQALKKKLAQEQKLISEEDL
# T2 TCR beta: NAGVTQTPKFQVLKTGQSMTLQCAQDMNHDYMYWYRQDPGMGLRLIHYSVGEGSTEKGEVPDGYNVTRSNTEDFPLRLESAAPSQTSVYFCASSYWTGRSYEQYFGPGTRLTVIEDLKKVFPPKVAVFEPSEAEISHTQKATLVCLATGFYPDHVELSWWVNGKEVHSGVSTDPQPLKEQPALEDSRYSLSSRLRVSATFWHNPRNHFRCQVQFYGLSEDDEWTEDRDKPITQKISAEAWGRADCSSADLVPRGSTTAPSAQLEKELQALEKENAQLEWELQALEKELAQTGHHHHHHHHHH
# T3: Cynomolgus TCR(AEA41865/AEA41866)-zipper protein (cynomolgus monkey)
# T3 construct: also called cyTCR-zipper protein; cynoTCR zipper
# T3 TCR alpha: T2 TCR alpha
# T3 TCR beta: T2 TCR beta
# B1: T017000630 (bispecific antibody)
# chain: DVQLVESGGGLVQAGGSLRLSCAASGITSKINDMGWYRQTPGNYREWVASITATGTTNYRDSVKGRFTISRDNAKSTVYLQMNSLKPEDTTVYYCNTFPPISNFWGQGTLVTVSSGGGGSGGGGSGGGGSGGGGSGGGGSGGGGSGGGGSEVQLVESGGGVVQPGGSLRLSCVASWDVHKINFYGWYRQAPGKEREKVAHISIGDQTDYADSAKGRFTISRDESKNTVYLQMNSLRPEDTALYYCRALSKIWPYDYWGQGTLVTVSSA
# notes: also called A0110056A10(E1D)-35GS-T0170056G05(L11V, G26W, L34Y, M77T, K83R, V89L, F91Y, F95L, R97K, Y99W)-A
# B2: T017000631 (bispecific antibody)
# chain: B1 chain with W176Y
# notes: also called A0110056A10(E1D)-35GS-T0170056G05(L11V, G26Y, L34Y, M77T, K83R, V89L, F91Y, F95L, R97K, Y99W)-A
# B3: T017000640 (bispecific antibody)
# chain: B1 chain with G185T, K250R
# notes: also called A0110056A10(E1D)-35GS-T0170056G05(L11V, G26W, L34Y, G35T, M77T, K83R, V89L, F91Y, F95L, Y99W)-A
# B4: T017000163 (VHH)
# VHH: EVQLVESGGGVVQPGGSLRLSCVASGDVHQINFLGWYRQAPGKEREKVAHISIGDQTDYADSAKGRFTISRDESKNMVYLQMNSLRPEDTALYFCRAFSRIYPYDYWGQGTLVTVSS
# notes: also called T017000745
# B5: T017000166 (VHH)
# VHH: B4 VHH with Q30K, L34Y
# B6: T017000170 (VHH)
# VHH: B4 VHH with Q30K, F33Y
# B7: T017000173 (VHH)
# VHH: B4 VHH with Q30K, F33V
# B8: T017000174 (VHH)
# VHH: B4 VHH with G26W, Q30K
# B9: T017000176 (VHH)
# VHH: B4 VHH with Q30K, I31L
# B10: T017000177 (VHH)
# VHH: B4 VHH with D27S, Q30K
# B11: T017000179 (VHH)
# VHH: B4 VHH with Q30K, G35T
# B12: T017000180 (VHH)
# VHH: B4 VHH with G26Q, Q30K
# B13: T017000185 (VHH)
# VHH: B4 VHH with Q30K, L34F
# B14: T017000188 (VHH)
# VHH: B4 VHH with D27A, Q30K
# B15: T017000190 (VHH)
# VHH: B4 VHH with Q30K, G35S
# B16: T017000196 (VHH)
# VHH: B4 VHH with Q30K, N32F
# B17: T017000200 (VHH)
# VHH: B4 VHH with Q30K, G35R
# B18: T017000208 (VHH)
# VHH: B4 VHH with G26Y, Q30K
# B19: T017000223 (VHH)
# VHH: B4 VHH with Q30K, T57A
# B20: T017000231 (VHH)
# VHH: B4 VHH with Q30K, H50V
# B21: T017000232 (VHH)
# VHH: B4 VHH with Q30K, T57V
# B22: T017000233 (VHH)
# VHH: B4 VHH with Q30K, T57S
# B23: T017000234 (VHH)
# VHH: B4 VHH with Q30K, H50M
# B24: T017000235 (VHH)
# VHH: B4 VHH with Q30K, Q56H
# B25: T017000238 (VHH)
# VHH: B4 VHH with Q30K, Q56E
# B26: T017000241 (VHH)
# VHH: B4 VHH with Q30K, D58N
# B27: T017000245 (VHH)
# VHH: B4 VHH with Q30K, G54A
# B28: T017000249 (VHH)
# VHH: B4 VHH with Q30K, Q56V
# B29: T017000254 (VHH)
# VHH: B4 VHH with Q30K, Q56R
# B30: T017000258 (VHH)
# VHH: B4 VHH with Q30K, D55E
# B31: T017000278 (VHH)
# VHH: B4 VHH with Q30K, D105S
# B32: T017000281 (VHH)
# VHH: B4 VHH with Q30K, F98M
# B33: T017000283 (VHH)
# VHH: B4 VHH with Q30K, R100S
# B34: T017000285 (VHH)
# VHH: B4 VHH with Q30K, D105L
# B35: T017000287 (VHH)
# VHH: B4 VHH with Q30K, D105Q
# B36: T017000290 (VHH)
# VHH: B4 VHH with Q30K, R100K
# B37: T017000291 (VHH)
# VHH: B4 VHH with Q30K, Y102W
# B38: T017000294 (VHH)
# VHH: B4 VHH with Q30K, Y106W
# B39: T017000301 (VHH)
# VHH: B4 VHH with Q30K, D105A
# B40: T017000302 (VHH)
# VHH: B4 VHH with Q30K, D105T
# B41: T017000312 (VHH)
# VHH: B4 VHH with Q30K, F98L
# B42: T017000638 (VHH, not shown: small tags and cut ends)
# VHH: B4 VHH with G26W, Q30K, L34Y, G35T, M77T, F94Y, F98L, Y102W
# B43: T017000682 (VHH, not shown: small tags and cut ends)
# VHH: B4 VHH with D27A, Q30K, L34Y, M77T, F94Y, F98L, Y102W
# B44: T017000686 (VHH, not shown: small tags and cut ends)
# VHH: B4 VHH with D27S, Q30K, L34Y, M77T, F94Y, F98L, Y102W
# B45: T017000690 (VHH, not shown: small tags and cut ends)
# VHH: B4 VHH with G26W, D27E, Q30K, L34Y, M77T, F94Y, F98L, Y102W
# Target: T1, Human T cell receptor on human primary …
# Assay: cell-based or functional assay
# For % Lysis, T cell mediated MOLM-13 cell killing, human primary T cells, E:T 10:1 in this document: test concentration or dose not given here.
Binder,"% Lysis, T cell mediated MOLM-13 cell killing, human primary T cells, E:T 10:1 [%]","EC50 (M), T cell mediated MOLM-13 cell killing, human primary T cells, E:T 10:1 [M]"
B1,0,–
B2,0,–
B3,37,5.7e-10

# Target: Cynomolgus T cell receptor on cynomolgus primary T cells (cynomolgus monkey); as to % Lysis, T cell mediated MOLM-13 cell killing, cynomolgus primary T cells, E:T 10:1: test concentration or dose not given here
# Assay: cell-based or functional assay
Binder,"EC50 (M), T cell mediated MOLM-13 cell killing, cynomolgus primary T cells, E:T 10:1 [M]","% Lysis, T cell mediated MOLM-13 cell killing, cynomolgus primary T cells, E:T 10:1 [%]"
B1,4.5e-10,–
B2,2e-10,35
B3,–,6

# Target: T2, Cynomolgus …
# Assay: SPR ProteOn off-rate screen
# Excerpt: (§1) Unique ISVD clones, i.e. clones with a unique sequence, were subsequently selected and screened to determine their off-rate. To this purpose, the ISVD containing periplasmic extracts were screened on huTCR-zipper and cyTCR-zipper protein by SPR on a ProteOn XPR36 instrument. The zipper proteins were immobilized on a GLC sensor chip (between 4300 and 5100RU) via amine coupling chemistry, using EDC/sulfo-NHS for activation of the carboxyl groups on the chip surface (running buffer: HBS-EP+, pH7.4). Periplasmic extracts were injected at 1/10 dilution for 2 min (at a flow rate of 45 μL/min) and dissociation was followed for 900 s. A pulse of 100 s of 3 M MgCl2 at 45 μL/min was used for regeneration. […] Processed sensorgrams were fitted with the Langmuir model (1:1 interaction) using ProteOn Manager 3.1.0 (Version 3.1.0.6) software.
row,Binder,koff [s⁻¹]
1,B4,0.00642
2,B5,0.00825
3,B6,0.00806
4,B7,0.00903
5,B8,0.00791
6,B9,0.00791
7,B10,0.00325
8,B11,0.00775
9,B12,0.00998
10,B13,0.0114
11,B14,0.00389
12,B15,0.0107
13,B16,0.00419
14,B17,0.058
15,B18,0.0147

# Target: T2, Cynomolgus …
# Assay: SPR ProteOn off-rate screen
# Remark: another data set of the same source
# Excerpt: as §1
row,Binder,koff [s⁻¹]
1,B19,0.0109
2,B20,0.00867
3,B21,0.00895
4,B22,0.0102
5,B23,0.0118
6,B24,0.011
7,B25,0.00957
8,B26,0.0167
9,B27,0.00936
10,B28,0.00939
11,B29,0.0118
12,B30,0.0107

# Target: T2, Cynomolgus …
# Assay: SPR ProteOn off-rate screen
# Remark: another data set of the same source
# Excerpt: as §1
row,Binder,koff [s⁻¹]
1,B31,0.0162
2,B32,0.00555
3,B33,0.00559
4,B34,0.0216
5,B35,0.0121
6,B36,0.00171
7,B37,0.00672
8,B38,0.0151
9,B39,0.0178
10,B40,0.0148
11,B41,0.0087

# Target: T2, Cynomolgus …
# Assay: SPR ProteOn off-rate screen
# Remark: another data set of the same source
# Excerpt: as §1
row,Binder,koff [s⁻¹]
1,B4,0.00701

# Target: T1, Human T cell receptor on human primary …
# Assay: flow cytometry, human primary T cells
# Description: The ISVD variants were characterized for binding to CHO-K1 huTCR(2XN9)/huCD3 or to human and cynomolgus primary T cells. […] Next, cells were washed 3 times with FACS buffer and incubated with 1 μg/ml ANTI-FLAG® M2 Ab (Sigma, F1804) and washed again. […] Subsequently, cells were resuspended in FACS buffer supplemented with 5 nM TO-PRO®-3 Iodide to distinguish live from dead cells, which are removed during the gating procedure. Cells were analyzed using a FACS Array flow cytometer (BD Biosciences) and Flowing Software. First a P1 population which represented more than 80% of the total cell population was selected based on FSC-SSC distribution. In this gate, 10000 cells were counted during acquisition. From this population the TO-PRO®-3+cells (dead cells) were excluded and the mean fluorescence intensity (MFI) PE value was calculated.
row,Binder,EC50 [nM]
1,B42,66
2,B43,58
3,B44,55
4,B45,66

# Target: T3, Cynomolgus …
# Assay: SPR, ProteOn XPR36, 25 C, immobilised TCR-zipper
# Excerpt: HuTCR-zipper or cyTCR-zipper protein was immobilized on a GLC sensor chip (between 100-200 RU) via amine coupling chemistry, using EDC/NHS for activation of the carboxyl groups on the chip surface (running buffer: HBS-EP+, pH7.4). […] Processed sensorgrams were fitted with the Langmuir model (1:1 interaction) using ProteOn Manager 3.1.0 (Version 3.1.0.6) software.
row,Binder,Kd [nM]
1,B1,240
2,B2,290
3,B3,15000
